Substitutions are numbered along the chain they refer to.
Legend:
Experiment in all cases: GC-MS product quantification, Michaelis-Menten fit
Type in all cases: biochemical, Salvia miltiorrhiza
Conditions in all cases: Mg2+ (5 mM MgCl2), 25 mM HEPES pH 7.0, 5 mM DTT, 30°C, 5 min, FPP 2.3-184.6 μM
[1] = substrate: CC(C)=CCC/C(C)=C/CC/C(C)=C/CO[P@@](=O)(O)OP(=O)(O)O
Source text: GC-MS product quantification, Michaelis-Menten fit on […]2

[2] = substrate: CC(C)=CCC/C(C)=C/CC/C(C)=C/CO[P@@](=O)(O)OP(=O)(O)O; remark: listed apart in the source
Source text: GC-MS product quantification, Michaelis-Menten fit on […]3

[3] = substrate: CC(C)=CCC/C(C)=C/CC/C(C)=C/CO[P@@](=O)(O)OP(=O)(O)O; remark: listed apart in the source
Source text: GC-MS product quantification, Michaelis-Menten fit on […]1

B1: SmSTPS2 (Salvia miltiorrhiza) (protein)
chain: MATTQVEIQRPIANFSPSLWGDQFIKNDSGAKAAEKHCKAVEELKKEVMNMITAGGSNLVEAMNLIDTLERLGISYHFEKEIDQKLNHFFNLNTDYSDEFYDLYTVSLHFRLFRQHGHRISSDIFGRWIDESGKFKEGLKTDGKGLLSLYEASYLRTRGETILDDALEFATATLNSIAPHLESPLSKQVVHALIQPLHYGNPRIEAHNFISIYEENQDKNEFLLKFAKLDYNLLQMLHKEELHEVSRWWKELDLVSKLPYARDRVVECFFWAMGVYHEPQYSRARIMLTKTITMTSIIDDTYDAYGVIEELDIFTEAIERWNIEEMDRLPEYVKPFYKALLELYEQFEEELAEEGRSYAAHYAIESLKELVRSYHVEAKWFIQGYLPPFEEYLKNALITCTYCYHTTTSLLGVESAVEEDFQWLAKKPKMLVAGLLICRVIDDIATYEVEKERGQSATGIESYMRDNNATIEEAVAKFFEIATDAWKDINEECLMPSPYSRDVLMRILNLERIIDVTYKGNEDGYTQPEKVLKPHIIALFVDPIKM
notes: full-length ORF, 546 aa, in pET-32a (N-terminal thioredoxin/His tag fusion, kept), E. coli Rosetta (DE3), Ni-NTA purified
Q: What does the source list for B1?
A: Km [1]: 24.20 ± 0.84 µM; kcat [1]: 2.07 ± 0.13 s⁻¹; kcat/Km [1]: 85600 ± 38200 M⁻¹ s⁻¹

B2: SmSTPS3 (Salvia miltiorrhiza) (protein)
chain: B1 chain with G55A, G56E, N91S, F100S
notes: as for B1
Q: B2 was tested. Which Km [2] did it give?
A: 10.44 ± 1.07 µM

Q: And the kcat [2]?
A: 1.53 ± 0.02 s⁻¹

Q: What about the kcat/Km [2] of the same protein?
A: 148000 ± 13200 M⁻¹ s⁻¹

B3: SmSTPS1 (Salvia miltiorrhiza) (protein)
chain: MATTQAQIQRPIANFSPSLWGDQFIKNDPGAKAAEKHCKAVEELKKEVMNMITAAGSNLVEAMNLIDTLERLGISYHFEKEIDQKLKHFFNLNKDYSDESYDLYTVSLHFRLFRQHGHRISSDIFGRWIDESGKFKEGLKTDGKGLLSLYEASYLRTRGETILDDALEFATATLNSIAPHLESPLSKQVVHALIQPLHYGNPRIEAHNFISIYEENQDKNEFLLRFAKLDYNLLQMLHKEELNEVSRWWKELDLVSKLPYARDRVVECFFWAMGVYHEPQYSRARIMLTKTITMTSIIDDTYDAYGVIEELDIFTEAIERWNMEEMKKLPEYIQPFYKALLELYEQFEEELAEEGRSYAAHYAIESLKELVRSYHVEAKWFIQGYLPPFEEYLKNALITCTYCYHTTTSLLGVESAVEEDFEWLANKPKMLVAGLLICRVIDDIATYEVEKERGQSATGIESYMRDNNATIEEAVAKFFEIATDAWKDINEECLMPSPYSRDVLMRILNLERIIDVTYKGNEDGYTQPEKVLKPHIIALFVDPIKM
notes: as for B1
Q: What does the source list for B3?
A: Km [3]: 25.35 ± 1.88 µM; kcat [3]: 2.09 ± 0.05 s⁻¹; kcat/Km [3]: 82700 ± 40600 M⁻¹ s⁻¹
